Source: patent US6518397B1, “Pharmaceuticals for modulating hormone responsiveness” (priority 1995, dated 2003)

Legend:
[1] = tested on: calreticulin mRNA in MC3T3 cells; assay: Calreticulin mRNA levels in MC3T3 cells; format: cell-based, mouse
Experimental: Calreticulin expression levels in these cell types are determined at the outset by Western blot analysis. In addition to utilizing these stable expression vectors, we construct inducible calreticulin expression sense- and antisense-cDNA expression vectors driven by strong metal inducible promoters (Filmus et al., 1992). The inducible vectors allow us to turn calreticulin expression on or off at will. In the MC3T3 cells, 1,25,dihydroxyvitamin D3 has a proliferative effect on these cells at subconfluency, but when added to confluent, mineralizing cultures, it enhances the mineralization process. The transfected cells are analyzed for the level of calreticulin expression by Western blot analysis as described by us previously as well as by Northern blot analysis for mRNA levels. The effect of up or down regulation of calreticulin is determined in terms of the above mentioned responses to 1,25 dihydroxyvitamin D3. In addition, the effect on the expression of vitamin D responsive genes, such as c-fos and integrin b3 subunit (Xu et al., 1993) is determined by Northern blot and Western blot analysis. […] The luciferase activity in mock transfected versus calreticulin sense- and antisense-cDNA transfected cells (stable and inducible) is then be determined as described by us previously (see Example 6). […]

[2] = molecular target: T1, calreticulin as used in the gel mobility shift assays of Examples 7 and 15 (Homo sapiens (Human), UniProt P27797 18-417); assay: gel mobility shift, PhosphorImager; reversal of calreticulin inhibition of AR binding to its DNA response element; competitor AR
T1 construct: Could be m1 or m2
T1 sequence: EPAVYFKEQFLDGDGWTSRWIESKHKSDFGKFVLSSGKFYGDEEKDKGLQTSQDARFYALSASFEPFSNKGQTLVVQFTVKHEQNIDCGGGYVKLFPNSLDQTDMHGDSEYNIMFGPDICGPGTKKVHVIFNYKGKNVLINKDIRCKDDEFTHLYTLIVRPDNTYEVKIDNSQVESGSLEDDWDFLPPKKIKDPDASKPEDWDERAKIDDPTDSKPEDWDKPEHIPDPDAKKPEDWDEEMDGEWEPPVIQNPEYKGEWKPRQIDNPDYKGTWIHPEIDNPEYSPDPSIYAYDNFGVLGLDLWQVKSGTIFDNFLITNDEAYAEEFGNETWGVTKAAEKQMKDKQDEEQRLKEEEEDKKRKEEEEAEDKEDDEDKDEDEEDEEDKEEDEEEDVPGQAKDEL
Experimental: As described in Rennie et al., 1993, DNA binding domain of recombinant rat androgen receptor was prepared as a GST-fusion protein using the pGEX-3X vector and purified by glutathione-agarose affinity chromatography. p60 (calreticulin) was purified by affinity chromatography on KLGFFKR-sepharose [SEQ ID NO:7], followed by gel electrophoresis as described in detail in Rojiani et al., 1991. […] Recombinant calreticulin (GST-fusion protein) was prepared as described by Baksh and Michalak, 1991. Gel retardation assays were carried out as described by Rennie et al., 1993. To analyze the effect of p60, or recombinant calreticulin, on receptor-DNA binding activity, the AR was pre-incubated with p60 for 30 min at 4° C. […] The androgen receptor preparation was then added to these mixtures and further incubated for 30 min at 4° C.
(§1) This Table relates to the retinoic acid receptors (RAR/RXR) and the androgen receptor (AR). […] The data was quantified using a Phosphormager (Molecular Dynamics).

[3] = molecular target: T1, calreticulin as used in the gel …; assay: gel mobility shift; reversal of calreticulin inhibition of receptor-DNA binding; competitor VDR/RXR, reference RAR/RXR
Experimental: (§2) Example 7 Peptides Having Differential Specificities for Disrupting Different Hormone Receptor-Calreticulin Interactions To identify peptides having different specificities, we utilized gel mobility shift assays (see Example 3) in which known concentrations of purified recombinant androgen receptor, estrogen receptor, retinoic acid receptors (RAR/RXR and RXR/RXR) (Shago et al., 1994) and vitamin D receptor (Xu et al., 1993) were incubated with known concentrations of either recombinant calreticulin, or calreticulin purified by affinity chromatography on a KLGFFKR affinity column [SEQ ID NO:7] (see Example 3) in the presence of the respective ^32P-labelled DNA response elements and known concentrations of synthetic peptides based on the KXFFX[1]R [SEQ ID NO:1] sequence. In addition to the linear peptides, some peptides were cyclized by adding cysteine residues at either ends.

[4] = molecular target: T1, calreticulin as used in the gel …; assay: gel mobility shift, PhosphorImager; reversal of calreticulin inhibition of RAR/RXR binding to its DNA response element; competitor RAR/RXR
Excerpt: as §1

[5] = molecular target: T1, calreticulin as used in the gel …; assay: gel mobility shift; reversal of calreticulin inhibition of receptor-DNA binding; competitor RXR/RXR, reference RAR/RXR
Experimental: as §2

AP-1 = assay: Binding of AP-1 to DNA
[6] = molecular target: T2, DNA binding domain of recombinant rat androgen receptor (AR) / calreticulin (p60) (Homo sapiens, UniProt P27797); assay: Gel mobility shift (gel retardation) assay: calreticulin (p60) inhibition of AR-ARE binding and its reversal by peptides/antibody; conditions: protein pre-incubated with AR 30 min at 4° C.
T2 construct: endogenous in cells
T2 sequence (P27797 18-417): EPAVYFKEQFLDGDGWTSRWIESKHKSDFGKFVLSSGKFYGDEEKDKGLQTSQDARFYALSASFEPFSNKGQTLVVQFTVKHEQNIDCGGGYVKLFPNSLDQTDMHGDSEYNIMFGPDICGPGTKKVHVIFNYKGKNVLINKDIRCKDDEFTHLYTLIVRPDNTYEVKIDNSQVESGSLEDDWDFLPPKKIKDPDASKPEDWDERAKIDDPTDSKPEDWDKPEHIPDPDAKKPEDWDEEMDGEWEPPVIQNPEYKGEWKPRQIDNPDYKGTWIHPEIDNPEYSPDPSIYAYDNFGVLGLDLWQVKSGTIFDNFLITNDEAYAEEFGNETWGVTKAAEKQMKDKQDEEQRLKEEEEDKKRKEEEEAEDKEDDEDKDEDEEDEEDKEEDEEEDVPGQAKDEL
Experimental: To determine whether p60 (calreticulin) could directly modulate the binding of nuclear hormone receptors to DNA via the KXFFX^1R [SEQ ID NO:1] sequence, the interaction of the DNA binding domain of recombinant androgen receptor with its hormone responsive element was analyzed by carrying out gel mobility shift assays.
As described in Rennie et al., 1993, DNA binding domain of recombinant rat androgen receptor was prepared as a GST-fusion protein using the pGEX-3X vector and purified by glutathione-agarose affinity chromatography. p60 (calreticulin) was purified by affinity chromatography on KLGFFKR-sepharose [SEQ ID NO:7], followed by gel electrophoresis as described in detail in Rojiani et al., 1991. […] Recombinant calreticulin (GST-fusion protein) was prepared as described by Baksh and Michalak, 1991. Gel retardation assays were carried out as described by Rennie et al., 1993. To analyze the effect of p60, or recombinant calreticulin, on receptor-DNA binding activity, the AR was pre-incubated with p60 for 30 min at 4° C. To analyze the effects of synthetic peptides, anti-calreticulin antibody, and non-immune IgG on p60 inhibition of AR-ARE binding, the peptide, antibody or IgG were pre-incubated with p60 for 30 min at 4° C. The androgen receptor preparation was then added to these mixtures and further incubated for 30 min at 4° C.
Affinity purified DNA binding domain of the recombinant rat androgen receptor (AR) was pre-incubated with or without the indicated concentrations of purified p60 at 4° C. for 30 min. After this pre-incubation the reaction mixtures were incubated with ^32P-labeled 26 base pair ARE (Rennie et al., 1993) (androgen response element), and analyzed by gel retardation assay. The sequence of the ARE used was [SEQ ID NO:28]:
Amino acids in the KXFFX^1R [SEQ ID NO: 1] sequence were modified. Androgen receptor and calreticulin were incubated in the presence of the modified peptides and allowed to interact with an oligonucleotide containing the androgen response element (the method of this assay is described in Example 3). The interaction was analyzed by gel mobility shaft assay (FIGS. 5A-5C).

C=C1/C(=C\C=C2/CCC[C@]3(C)[C@@H]([C@H](C)CCCC(C)(C)O)CC[C@@H]23)C[C@@H](O)C[C@@H]1O [1,25,dihydroxyvitamin D3]
Calreticulin mRNA levels [1]: upregulates calreticulin mRNA levels

B1: KLGFFKR synthetic peptide (peptide)
peptide: KLGFFKR
notes: Used free in solution and immobilised on sepharose; also called KLGFFKR-sepharose
% Reversal [2]: 62%
fold potency against VDR/RXR compared to RAR/RXR [3]: 10 fold
% Reversal [4]: 100%
fold potency against RXR/RXR compared to RAR/RXR [5]: 4 fold

B2: p60 (calreticulin): 60 kDa protein, calreticulin, purified by affinity chromatography on KLGFFKR-sepharose (protein)
chain: EPAVYFKEQFLDGDGWTSRWIESKHKSDFGKFVLSSGKFYGDEEKDKGLQTSQDARFYALSASFEPFSNKGQTLVVQFTVKHEQNIDCGGGYVKLFPNSLDQTDMHGDSEYNIMFGPDICGPGTKKVHVIFNYKGKNVLINKDIRCKDDEFTHLYTLIVRPDNTYEVKIDNSQVESGSLEDDWDFLPPKKIKDPDASKPEDWDERAKIDDPTDSKPEDWDKPEHIPDPDAKKPEDWDEEMDGEWEPPVIQNPEYKGEWKPRQIDNPDYKGTWIHPEIDNPEYSPDPSIYAYDNFGVLGLDLWQVKSGTIFDNFLITNDEAYAEEFGNETWGVTKAAEKQMKDKQDEEQRLKEEEEDKKRKEEEEAEDKEDDEDKDEDEEDEEDKEEDEEEDVPGQAKDEL
Effect on binding of AP-1 to DNA (AP-1): did not effect the binding of AP-1 to DNA
Effect of protein on AR-ARE (receptor-DNA) complex formation [6]: dose-dependent inhibition in the formation of this complex
